Laboratory results reported in patent US20080292619A1, “Pharmaceutical Composition Containing Meltrin Antagonist” (MOCHIDA PHARMACEUTICAL CO., LTD., priority 2004, published 2008).

Molecular target: T1, meltrin α (Homo sapiens, UniProt O43184, E208G/T209S)
T1 construct: had been converted to mature meltrin α having the prodomain deleted (molecular weight 68 kDa); made in house; host or cells: COS-1
T1 sequence (O43184 208-738 isoform O43184-2 E208G/T209S): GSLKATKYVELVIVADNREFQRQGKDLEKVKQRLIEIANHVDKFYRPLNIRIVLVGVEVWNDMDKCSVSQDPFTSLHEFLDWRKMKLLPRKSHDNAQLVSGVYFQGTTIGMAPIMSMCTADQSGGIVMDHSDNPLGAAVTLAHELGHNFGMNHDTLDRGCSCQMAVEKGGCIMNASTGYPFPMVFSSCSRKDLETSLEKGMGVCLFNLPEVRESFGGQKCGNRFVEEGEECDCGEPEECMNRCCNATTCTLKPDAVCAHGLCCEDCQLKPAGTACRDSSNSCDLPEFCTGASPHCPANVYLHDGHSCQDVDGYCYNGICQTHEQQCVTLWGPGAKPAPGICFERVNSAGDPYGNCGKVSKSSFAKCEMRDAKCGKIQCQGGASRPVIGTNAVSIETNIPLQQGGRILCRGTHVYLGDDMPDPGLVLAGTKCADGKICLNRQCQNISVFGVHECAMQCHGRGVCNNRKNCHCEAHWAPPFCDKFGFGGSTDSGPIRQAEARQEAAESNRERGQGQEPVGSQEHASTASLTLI
Test: Inhibition of protease activity of meltrin α (rhIGF-BP3 cleavage, western blotting)
Assay type: biochemical
Conditions: antibody 300 μg/mL; rhIGF-BP3 band
Method: Thrombin (Amersham Biosciences) was added to the purified meltrin α-STFLAG prepared in Example 5, and mixture was kept at 25° C. for 15 hours. When the solution after the reaction was examined by repeating the procedure of Example 5, the human meltrin α containing the prodomain (molecular weight 92 kDa) had been converted to mature meltrin α having the prodomain deleted (molecular weight 68 kDa). For measuring the enzymatic activity of the meltrin α, the solution after the prodomain cleavage with thrombin followed by inactivation of the thrombin by 10 mM APMSF (Wako Pure Chemical Industries, Ltd.) was used. The disappearance of the thrombin activity was confirmed by using the synthetic substrate for the thrombin on the reaction solution. […]
The anti-human meltrin α antibodies produced in Examples 6 and 7 were evaluated on their activity for inhibiting protease activity of meltrin α by using the protease activity assay system of Example 9. […] After the reaction, the reaction solution was electrophoresed by SDS-PAGE, and the rhIGF-BP3 was detected by western blotting.
According to the method of Example 9, activity of the low molecular weight compound for inhibiting protease activity of the meltrin α was assayed as described below. […] After the reaction, the reaction solution was electrophoresed by SDS-PAGE, and the rhIGF-BP3 was detected by western blotting.

B1: F1196-113-1: anti-meltrin α monoclonal antibody clone (antibody, V domains shown)
VH: EVKLLESGGGLVQPGGSLKLSCAASGFDFSRYWMSWVRQAPGKGLEWIGEINPDSSTINYTPSLKDKFIISRDNAKNTLYLHMSKVRSEDTALYYCARPDSYYRYYAMDYWGQGTSVTVSSAKTTA
VL: DIQMTQTTSSLSASLGDRVTISCRASQDISNYLNWYQQKPDGTVKLLIYYTSRLHSGVPSRFSGSGSGTDYSLTISNQEQEDIATYFCQQGNTLPYTFGGGTKLEIKR
  activity for inhibiting protease activity of meltrin α: inhibitory activity for the meltrin α protease activity has been confirmed
